The subject of experiment [1] is MCAO-induced ischemic stroke model mice. In words: Middle cerebral artery occlusion (MCAO)-induced ischemic stroke model. The format is in vivo, mouse. Conditions: 4 μL i.c.v. 3 h after ischemia; 100 nM PcTx1 or 3.0 μg/μL ASC06-IgG1; 24 h after injection. As to the method: The Middle Cerebral Artery Occlusion (MCAO) Model. Animal care and the experimental protocols were approved by the Animal Ethics Committee of Shanghai Jiao Tong University School of Medicine, Shanghai, China. A transient ischemic stroke in the left brain hemisphere was established in male mice (C57 BL/6, 20-25 g) using middle cerebral artery occlusion (MCAO) for 1 h before reperfusion. Three hours after ischemia, a total of 4 μL of vehicle solution (PBS) in the absence or presence of neuroprotective agents) 100 nM PcTx1 or 3.0 μg/μL endotoxin-free ASC06-IgG1 ([…])) was administered by an intracerebroventricular (i.c.v.) injection on the contralateral side of the brain hemisphere. An irrelevant endotoxin-free antibody (3.0 μg/μL, […]) was used as isotype control. […] Mice were sacrificed 24 h after the i.c.v. injection. […] The infarct area was calculated by subtracting the normal area stained with TTC in the ischemic hemisphere from that of the nonischemic hemisphere. The infarct volume was calculated by summing infarction areas of all sections and multiplying by slice thickness.
To determine if the protective effect of antibody ASC06-IgG1 in vitro could be extended to pathologies in vivo, the middle cerebral artery occlusion (MCAO) model was used to study the antibody's neuroprotective effect. […] The infarct volume of the cortex and striatum were calculated 24 hours after the injection. […]

Another experiment addresses T1, hASIC1a N322A (Homo sapiens, UniProt P78348, N322A).
T1 construct: expressed in transfected cells; host or cells: CHO-K1, transient
T1 sequence (P78348 1-528 N322A): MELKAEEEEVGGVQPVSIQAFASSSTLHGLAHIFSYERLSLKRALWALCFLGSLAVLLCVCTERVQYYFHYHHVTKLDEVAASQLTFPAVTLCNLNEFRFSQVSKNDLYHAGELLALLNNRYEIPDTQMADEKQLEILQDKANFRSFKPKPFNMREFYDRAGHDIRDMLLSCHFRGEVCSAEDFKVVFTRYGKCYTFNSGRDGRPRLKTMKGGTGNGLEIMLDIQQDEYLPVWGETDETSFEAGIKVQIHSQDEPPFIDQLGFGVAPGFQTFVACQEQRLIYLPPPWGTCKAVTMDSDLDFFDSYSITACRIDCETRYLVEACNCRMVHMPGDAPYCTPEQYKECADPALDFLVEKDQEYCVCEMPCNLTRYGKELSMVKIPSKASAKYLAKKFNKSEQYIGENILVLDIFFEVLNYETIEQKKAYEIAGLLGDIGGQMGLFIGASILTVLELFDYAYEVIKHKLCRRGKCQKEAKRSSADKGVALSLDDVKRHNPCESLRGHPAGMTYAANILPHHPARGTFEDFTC
In words: FACS binding to alanine mutant hASIC1a-eYFP on CHO-K1 cells. Conditions: vs WT hASIC1a. Type of experiment: cell-based. As to the method:
(§1) To confirm the role of these amino acids, alanine mutagenesis was performed and four amino acids are very important for antibody binding were identified. Plasmid encoding single amino acid mutation of hASIC1a-eYFP was constructed and transient transfected into CHO-K1 cells. FACS binding assay was then performed to test whether the ASC06-IgG1 still binds to cell surface expressing mutated hASIC1a.
Background: A flow cytometer gives signals particle by particle.

The target in another experiment is T2, hASIC1a Y318A (Homo sapiens, UniProt P78348, Y318A).
T2 construct: expressed in transfected cells; host or cells: CHO-K1, transient
T2 sequence (P78348 1-528 Y318A): T1 sequence (P78348 1-528 N322A) with Y318A, A322N
The experiment is described as above. Conditions: vs WT hASIC1a. The format is cell-based. As to the method:
as §1

The next experiment addresses T3, hASIC1a Y360A (Homo sapiens, UniProt P78348, Y360A).
T3 construct: expressed in transfected cells; host or cells: CHO-K1, transient
T3 sequence (P78348 1-528 Y360A): T1 sequence (P78348 1-528 N322A) with A322N, Y360A
The description is as above. Conditions: vs WT hASIC1a. Type of experiment: cell-based. As for the experimental part: as §1

Residue numbers refer to the chain shown, from its start.

B1: ASC06-IgG1: ASC06 antibody converted into a full length IgG1 form (antibody, V domains shown)
VH: QVQLQQSGGGLVQPGGSLRLSCAASGFTFSSYAMSWVRQAPGKGLEWVSAISGSGGSTYYADSVKGRFTISRDNSKNTLYLQMNSLRAEDTAVYYCAKDSFYGYSKGDWGQGTLVTVSS
VL: QSALTQPASVSGSPGQSITISCTGTSSDVGAYNYVSWYQQQPGKAPKLMIYGVSNRPSGVSNRFSGSKSGNAASLTISGLQAEDEADYYCSSYTSSSTYVFGTGTKLTVLG
As for B1, the “infarct volume (compared with the contralateral brain region)” value in experiment [1] is listed as “about 23%”. The “binding to hASIC1a N322A mutation” value with hASIC1a N322A is reported as “decrease”. In addition, the “binding to hASIC1a Y318A mutation” value with hASIC1a Y318A is reported as “abolished”. The “binding to hASIC1a Y360A mutation” value in the experiment with hASIC1a Y360A is given as “decrease”.

For the origin of these results see patent US12692310B2, “ASIC1 channel antagonist antibody” (ShanghaiTech University, priority 2019, dated 2026).
